According to the supplement of paper PMC9170038:

Tested on: MS2 coat protein
Assay: apparent KD of MS2 coat protein; designed switch direction (-1 OFF switch, 1 ON switch): 1; higher = weaker reporter binding
Summary of the method: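 The reported apparent KD is a per-design median over clusters, from curve fits of normalised cluster fluorescence. Protein titrations used SNAP-549-labelled MS2 coat protein, doubled from 0.7 or 1.5 nM to 3 µM, in Tris-HCl pH 7.5 buffer with KCl, MgCl2, BSA, DTT, tRNA and Tween-20, with no input, 200 uM small-molecule ligand, or an oligonucleotide input. The RNA switches were transcribed on Illumina chips by stalled E. coli RNA polymerase.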

[1] = Eterna round: R95, input ligand: FMN 200 uM
[2] = Eterna round: R95, input ligand: microRNA oligo, concentration not stated
[3] = Eterna round: R95, input ligand: none
[4] = input ligand: microRNA oligo, concentration not stated

Row | Sequence | apparent KD of MS2 coat protein [1] [nM] | apparent KD of MS2 coat protein [2] [nM] | apparent KD of MS2 coat protein [3] [nM] | apparent KD of MS2 coat protein (input ligand: FMN 200 uM) [nM] | apparent KD of MS2 coat protein [4] [nM] | apparent KD of MS2 coat protein (input ligand: none) [nM]
1 | UACAAUCUAUCUGAGGAUAUCAUGUAUUAAACAUGAGGAUCACCCAUGUGCAGGAAAACUGCAUAUGAGAAGGCAGAUAGAUUGU [salish99_ss2_r3_064] (puzzle: Same State 2) | 428 | 41.9 | 168 |  |  | 
2 | UUGUUUAACGUAGGAUAUCGACCUACAUGAGGAUCACCCAUGUCUUUGUAUAGUUUUUUUUGUUACGAGAAGGACGUUUUGUAU [JR_SSNG2_Sub068] (Eterna round: R96, puzzle: Same State NG 2) |  |  |  | 68.6 | 140 | 170
3 | GUAAAGAAUUAAGGAUAUUGAUUACAUAUGUUUAACAUGAGGAUCACCCAUGUGGGUUGCGGUAUCGAGAAGGUAAAAUAAUAG [Mat - same State NG 2 - JL mod - D86] (Eterna round: R96, puzzle: Same State NG 2) |  |  |  | 190 | 131 | 174
4 | GUGGUCAGACAUGAGGAUCACCCAUGUGGAAUAAAUAAGGUACAGGAUAUCUAAUAUAGGAUAUAAGAGAAGGGUAGGUUGGUG (Eterna round: R96, puzzle: Same State NG 3) |  |  |  |  | 55.9 | 
5 | AUAAGUUUGAUGCUCGUCUCUCCGUACAAACAUGAGGAUCACCCAUGUGGUCGGGAAGUAGCCCGGCCAGUAUGGCA [Arbitius] (puzzle: Sensor for hsa-mir-208a) | 43.3 | 17.9 | 47.3 |  |  | 
6 | CGUCGUUUGAUAGGAUAUCGCUAUACAUGAGGAUCACCCAUGUUUACCACGCUGGUUUUUCAUACCGAGAAGGAUUCUGAUGUU [salish99_SSNG02_r04_016] (Eterna round: R96, puzzle: Same State NG 2) |  |  |  | 49.8 | 42.4 | 44.1
7 | AAGCUCGUGUGAGGAUAUGCCGCCGUUUCGGCUGCAGAAGGUGCUACGUUACAUGAGGAUCACCCAUGUCUCUGUUGUUUCGUC [salish99_SSNG1_r04_954] (Eterna round: R96, puzzle: Same State NG 1) |  |  |  |  | 22.1 | 
8 | CAAGUACAUGAGGAUCACCCAUGUGGAAGAGAUGCAGGAUAUGUGGAGGAAGGGAGUGUAACAGAAGGGCAAGGAG [JR_SS!_Sub020] (puzzle: Same State 1) | 39.9 | 45.6 | 50.8 |  |  | 
9 | GAGGAUGAUUUACAGGAUAUAUAGAAGAUGACAUGAGGAUCACCCAUGUAAGAGAAAGGAGGGAGAUAGAAGGGUAAGGGAUGUG [JR_SS2_Sub40] (puzzle: Same State 2) | 37.2 | 24.5 | 42.3 |  |  | 
10 | AAAGGAUGAUGUUACAUGAGGAUCACCCAUGUAGUGAUAACUAAGGAUAUGUGUUAAACCAGUUAAUAGAAGGUAGGAUCAUUA [AK SSNG3-V2-6] (Eterna round: R96, puzzle: Same State NG 3) |  |  |  | 43.8 | 35.1 | 49.4
11 | CGAGCCGGCACUGAGGAUAUUCAUAUUUAAACAUGAGGAUCACCCAUGUAGGCCAGAAGGCCUUGGGAGAAGGCAGGUCGGCUCC [salish99_ss2_r3_080] (puzzle: Same State 2) | 22.6 | 279 | 480 |  |  | 
12 | AAUUAAGAUCAAGGAUAUCACGUCGUUUAGACGUGAGAAGGUGAUCAUAACAUGAGGAUCACCCAUGUAUUACAUGAAUUAAUU [SSNG1/2-B3] (Eterna round: R96, puzzle: Same State NG 1) |  |  |  | 72.4 | 404 | 370
13 | GUGGUCAGACAUGAGGAUCACCCAUGUGGAAUAAAUAACAGACAGGAUAUCGAAUAUAGGAUAUAUGAGAAGGGUCGAUUGGUG (Eterna round: R96, puzzle: Same State NG 3) |  |  |  | 63.4 | 63 | 90.7
14 | GGUAGGUUACUACCAAACAACAUGAGGAUCACCCAUGUGUGGAAGGAUAUGGUACCUAUUUGGUACCAGAAGGUCCAAUUAAUU [Fiskers NG3ss - 4] (Eterna round: R96, puzzle: Same State NG 3) |  |  |  | 72.3 | 36.4 | 63.1
15 | GUGGUCAGACAUGAGGAUCACCCAUGUGGAAUAAAUAAGGACUAGGAUAUCGAAUAUAGGAUAUACGAGAAGGAGUGGUUGGUG (Eterna round: R96, puzzle: Same State NG 3) |  |  |  | 81.1 | 53.5 | 67.9
16 | UUGAAGAAUUAAGGAUAUCGAGUCGUCAGAUUAUACAUGAGGAUCACCCAUGUGGGUUGCGGUAUCGAGAAGGUAAAUUACAAG [JL JR Sub099 mod 5] (Eterna round: R96, puzzle: Same State NG 2) |  |  |  | 37.5 | 58.4 | 60
17 | UCUUGGUUUUUGCUCGUUUUUUGUGUUGAACAUGAGGAUCACCCAUGUAUUGUACAGUCCAGUUUAAUAAUGGUCCA [JMF 5] (puzzle: Sensor for hsa-mir-208a) | 33.9 | 24.6 | 48.8 |  |  | 
18 | UGUUGUAUUACAGGAUAUCUAUUAUGUUUAUUUAGAGAAGGGUAUUCACAUGAGGAUCACCCAUGUAUAUACGAGGAAGUUGUG [JMF's solution 16] (Eterna round: R96, puzzle: Same State NG 1) |  |  |  |  | 37.5 | 
19 | CACAAUCUAUCUGAGGAUAUCAUGAAAAAAACAUGAGGAUCACCCAUGUGCAGGAAAACUGCAUAUGAGAAGGCAGAUAGAUUGC [salish99_SS2_r3_013] (puzzle: Same State 2) | 27.9 | 460 | 943 |  |  | 
20 | CGUCGCUGUCGAGAGGAUAUGCGGUGAUGGACAUGAGGAUCACCCAUGUUAGCGAUAGUAUCACGGUAGAAGGCUCUUACGACUG [Soteed Omei mod 26] (puzzle: Same State 2) |  | 26.7 |  |  |  | 
21 | UGCAUACAUGAGGAUCACCCAUGUCAACUUAGUCGAGGAUAUGGGCAGCCGUGAGGCGAACCAGAAGGCGAAUUGU [JL-ss1-3.02 ViennaUCT mod] (puzzle: Same State 1) | 18.5 | 43.8 | 45.7 |  |  | 
22 | AGUCCAGCCUGAGCUGGACAAAGGCAUGUACAUGAGGAUCACCCAUGUCAUGUACAAGCUUUUUGCUCGUCUUAAUA [Zipper 49 - 1] (puzzle: Sensor for hsa-mir-208a) | 177 | 15 | 220 |  |  | 
23 | GGAGAGAAGUGAGGAUAUGCAUGGAAGACACAUGAGGAUCACCCAUGUGGGAGGGAAACCGGGAGGUAGAAGGCACUGGGAAGA [AK SSNG2-V2-25] (Eterna round: R96, puzzle: Same State NG 2) |  |  |  | 83.7 | 24.1 | 107
24 | CACAAUCUAUCUGAGGAUAUCAUGAAAAAAACAUGAGGAUCACCCAUGUGCAGGAAAACUGCAUAUGAGAAGGCAGAUAGAUUGA [salish99_SS2_r3_016] (puzzle: Same State 2) | 38 | 1260 | 678 |  |  | 
